Measured values taken from publication PMC4571306 (Molecular Biology of the Cell, 2015).

T1: GST-Kxd1 (S. cerevisiae, UniProt P53158 1-218)
T1 sequence (looked up): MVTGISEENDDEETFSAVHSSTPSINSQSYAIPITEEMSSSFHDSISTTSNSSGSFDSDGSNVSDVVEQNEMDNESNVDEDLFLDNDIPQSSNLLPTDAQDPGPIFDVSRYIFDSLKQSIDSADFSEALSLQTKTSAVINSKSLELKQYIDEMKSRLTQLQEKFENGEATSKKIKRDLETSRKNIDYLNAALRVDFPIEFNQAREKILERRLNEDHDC

B1: Vab2-GST (natural protein)
chain: MVADLTKGILKWKSRIEFDAVGSSSYYEELKGLPPLASHKKLTQAAIFNSTKYELLQVKKDILSIYEVVSRDIDEERNQMQQIELQLKKSLKKVEHSYKNVLKQRASTNCINGNDRLLANAEKKIGSLNEELACVNDIVSDIVNNLTALNANLPKKAQLLKDDSINVAHYPLLFDFLHKSCPKSIIATSEASIHENASPSPLLEHDELPAESINSFYGENELQSDSLAPLQTHDDNISSCKKILPPKFNTTSGPSIETNFENISADGLTYTKCSLKNSISLT
B2: HS-Cnl1 (natural protein, S. cerevisiae, UniProt Q06333 1-122, looked up)
chain: MQDNSSHSRESASAGDDPLGIDKLTVDYDYLLYKMRDYVQSIQLDTTELCKKQNEVMVNGIIENTIDKNIAKFKELLEKCDTLENHYEMLNQLAIITDTFKERIAEAVNNYNSLKKGASKSK
B3: HS-Bli1 (natural protein, S. cerevisiae, UniProt P35727 1-113, looked up)
chain: MGEQNKLYYDVEKLVNSLQESFDLDCAQSVSLFTSKSRSNEAWLEELENKFKLKDDVELDDVENLRAEIDMKLNMLEDKVSYYERLYKELEEFQNEIKIKTVVNNRRQSRTPK
B4: GST-Bli1 (natural protein, S. cerevisiae, UniProt P35727 1-113, looked up)
chain: B3 chain

Key:
Assay in all cases: pull-down
HS-Snn1 = HS-Snn1 (S. cerevisiae, UniProt P48232 1-102)
GST-Kxd1 = target: T1, GST-Kxd1
Vab2-GST = target: B1
GST-Snn1 = GST-Snn1 (S. cerevisiae, UniProt P48232 1-102)
HS-Cnl1 = target: B2

Binder: B1
- binding result (HS-Snn1): binds

Binder: B2
- binding result (GST-Kxd1): binds

Binder: B3
- binding result (Vab2-GST): binds
- binding result (GST-Snn1): binds

Binder: B4
- binding result (HS-Cnl1): binds
